From the supplement of paper PMC12764529
± gives the half width of the 95% confidence interval.

Key:
[1] = folding stability dG unfold from chymotrypsin proteolysis; higher = more stable
In short: (§1)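 How resistant each design was to proteolysis was captured as K50, inferred by Bayesian fitting of sequencing counts. Unfolding free energy was then derived relative to a sequence-predicted unfolded-state K50 and a shared folded-state K50, per protease or combined. Digestion used trypsin and chymotrypsin at 11 threefold-diluted concentrations plus a no-protease condition, on mini-proteins under 80 residues without cysteine in a PA-tagged cDNA display construct. Designs were kept only when AlphaFold2 dimer inter-PAE was above 15.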

[2] = folding stability dG unfold from trypsin proteolysis; higher = more stable
In short: as §1

[3] = folding stability dG unfold (combined trypsin and chymotrypsin); higher = more stable
In short: as §1

Row | Sequence | folding stability dG unfold [1] | folding stability dG unfold [2] | folding stability dG unfold [3]
1 | SAGGSAMTLEEARELVERLVRELFPDAEVLDVDAVRLPDRLVLVDAVVRPKYRPDEVLRFRFLLGDSAGGSA [r15_627_TrMRF] | 4.106 ± 0.032 kcal/mol | 3.53 ± 0.1 kcal/mol | 3.94 ± 0.06 kcal/mol
2 | SAGGSAMTLRLELRVRLQVFNEDGELLGERELDIEIELEGEPLEVPPPPEIDPEEAARLLGLDPDGSAGGSA [r15_572_TrMRF] | 2.84 ± 0.039 kcal/mol | 0.909 ± 0.098 kcal/mol | 2.37 ± 0.25 kcal/mol
3 | SAGGSAMTTIVKTEPPTLDEEGNPYIRLTIKFPNGGTTTITLAPSELPQYLADLPPGFEVEEINPLSAGGSA [r15_339_JUSTAS] | 2.69 ± 0.038 kcal/mol | 2.41 ± 0.11 kcal/mol | 2.65 ± 0.11 kcal/mol
4 | SAGGSAMTTVTWTFPPSTSVEEAIEALKAQLEAERNEKIEIPSISVSTTGDTITVTLPIKIEPLPASAGGSA [r15_105_JUSTAS] | 0.327 ± 0.22 kcal/mol | 1.86 ± 0.049 kcal/mol | 1.26 ± 0.14 kcal/mol
5 | SAGGSAMTVEELKELFPGYPITEITDFQPVDGWYTLSIKYPNNGKKRQINVEGMPPELAKEIMELISAGGSA [r15_830_TrROS] | -0.394 ± 0.21 kcal/mol | 0.161 ± 0.036 kcal/mol | 0.0457 ± 0.098 kcal/mol
6 | SAGGSAMTVTKVGSETKTDPAKGIVTTTEITKLPTGGLTKTVTTTTIEGGKVKSSTTTTTAIPVGTSAGGSA [r15_283_JUSTAS] | 0.266 ± 0.065 kcal/mol | -0.156 ± 0.061 kcal/mol | 0.104 ± 0.085 kcal/mol
7 | SAGGSAMTVTVELEFEPVTVTDADGKEREVPVRVKVTAKVELVRDPETGELVERVEVTSIEIEVEPSAGGSA [r15_884_TrROS_Hall] | 1.92 ± 0.079 kcal/mol | 1.73 ± 0.069 kcal/mol | 1.87 ± 0.15 kcal/mol
8 | SAGGSAMTVTYTPSTKTITITDPSNGKPVKVTVTEEKPVVPGKNVYELTVTVPDTGGEKKILITLPSAGGSA [r15_209_JUSTAS] | -0.192 ± 0.15 kcal/mol | 0.848 ± 0.055 kcal/mol | 0.55 ± 0.11 kcal/mol
9 | SAGGSAMTVVKVTLKSPSGTTTVTLPAEEWERFLAAPEVSKTWTLTEVVEEEEPPPELDPEAVELGSAGGSA [r15_460_JUSTAS] | 1.12 ± 0.15 kcal/mol | 0.626 ± 0.11 kcal/mol | 0.864 ± 0.3 kcal/mol
10 | SAGGSAMTYTITLKTPGSQSLELSLDEKLKLLSQTIDPNTGVTTLTLEGDPEEAKKLEQEIKEKLASAGGSA [r15_662_JUSTAS] | 1.66 ± 0.11 kcal/mol | 1.56 ± 0.059 kcal/mol | 1.56 ± 0.17 kcal/mol
11 | SAGGSAMVDKTMTEEEARAFAEASGDPRVTVEPVENPNNDPNAPKKWRITVDGSGTPGSTILFTSPSAGGSA [r15_428_JUSTAS] | -0.928 ± 0.28 kcal/mol | -0.398 ± 0.12 kcal/mol | -0.55 ± 0.089 kcal/mol
12 | SAGGSAMVRLPDGTLVIDVKLPEDRPDAKVTVTVLEDGSPVGSVDVNTGKVTISVSPGVSVSITVESAGGSA [r15_180_JUSTAS] | 1.53 ± 0.046 kcal/mol | 2.12 ± 0.051 kcal/mol | 1.79 ± 0.052 kcal/mol
13 | SAGGSAMVSLEEAKEATLREVKAALGFSPDATPEELRARGVPVRVPITVRDEKGNVIAELELELPGSAGGSA [r15_391_JUSTAS] | 0.571 ± 0.046 kcal/mol | -0.118 ± 0.04 kcal/mol | 0.37 ± 0.039 kcal/mol
14 | SAGGSAMYTVTLTLPPSLAIPPDSTITVTFPDGSTETYSVDSGPVTITLTAPADGSTSVGVSLSVPSAGGSA [r15_992_JUSTAS] | 3.67 ± 0.04 kcal/mol | 2.6 ± 0.097 kcal/mol | 3.27 ± 0.1 kcal/mol
15 | SAGGSANFNVKLEIKIIERNPGNPDYVIVRIKVEHRHPNPDGNPMEHRRPIPWIMITDPEEIKEFISAGGSA [r15_1019_TrROS] | 2.39 ± 0.029 kcal/mol | 2.32 ± 0.12 kcal/mol | 2.36 ± 0.084 kcal/mol
16 | SAGGSANGKRVEVPITIFFYRRDPEDGKWEPIFPFEIPIRIPVPPGAEVTIEIEFTGNMFRITIEVSAGGSA [r15_537_TrROS] | 4.53 ± 0.094 kcal/mol | 3.19 ± 0.11 kcal/mol | 4.09 ± 0.13 kcal/mol
17 | SAGGSANLPPGQPKIITITIPLGEEVRNPDGEPMTPEDIADNFQERFGNIEVEKSPNGWLEVTFWLSAGGSA [r15_645_TrROS] | 0.637 ± 0.15 kcal/mol | 1.3 ± 0.06 kcal/mol | 1.18 ± 0.19 kcal/mol
18 | SAGGSANVQVEQTGDGKIKIEFPWYGAEITLNPKKGDIEVEVLPNYKNGQPPPEDEVKNLAKEILDSAGGSA [r15_735_TrROS] | 0.971 ± 0.047 kcal/mol | -0.0532 ± 0.092 kcal/mol | 0.739 ± 0.13 kcal/mol

Row | Sequence | folding stability dG unfold [1] | folding stability dG unfold [2] | folding stability dG unfold [3]
19 | SAGGSAPAKVEPLRVKIEFTPPNGEKHTFPMEIHRVHDNAIEIQDGGQPIRIPPNLDNIQITDIELSAGGSA [r15_510_TrROS] | 0.558 ± 0.044 kcal/mol | -0.614 ± 0.34 kcal/mol | 0.356 ± 0.14 kcal/mol
20 | SAGGSAPDDVEVEIKNIHYNPNWGYIMITIKVDGPVDSIEIELPNGWEISVMRDKDGTMTIMFPFPSAGGSA [r15_736_TrROS] | 3.29 ± 0.18 kcal/mol | 2.43 ± 0.1 kcal/mol | 3.15 ± 0.32 kcal/mol
21 | SAGGSAPEDNYVVLIFIDISIEWKPKYDEDNGKNRIEFEWKLEIDIPTIVLPPDDPEAKDLLEDLLSAGGSA [r15_470_TrROS] | 3.35 ± 0.14 kcal/mol | 2.29 ± 0.067 kcal/mol | 2.94 ± 0.12 kcal/mol
22 | SAGGSAPEIPTDALVRVRDPNSDKWYEATVLEARKLPGGELVYLIRLTKDGNEELVPTDLATVELKSAGGSA [r15_62_JUSTAS] | 1.53 ± 0.12 kcal/mol | 1.05 ± 0.08 kcal/mol | 1.29 ± 0.098 kcal/mol
23 | SAGGSAPIRIIKDPEKGTIMIRVPGPITVNQELKLRDENGKPWEIKNVEVERVGGRLIITMKVEPASAGGSA [r15_838_TrROS] | 1.24 ± 0.19 kcal/mol | 1.19 ± 0.052 kcal/mol | 1.29 ± 0.11 kcal/mol
24 | SAGGSAPKIRVEIEIDPDNGTIKLEVQHDGKPVFEMTMRIDPNGKIKEMKFTFYVDPDNGKLEIMMSAGGSA [r15_770_TrROS] | 4.59 ± 0.26 kcal/mol | 3.68 ± 0.25 kcal/mol | 4.43 ± 0.17 kcal/mol
25 | SAGGSAPLPAREFADEIMKKSPGPVEITVVFKEPDEYYVAKITMNPNNGKPQIKVERIPPEDLKKLSAGGSA [r15_156_TrROS] | 0.626 ± 0.23 kcal/mol | 0.42 ± 0.065 kcal/mol | 0.467 ± 0.23 kcal/mol
26 | SAGGSAPNKWKTVDIEFMFPPDNLEEFVDEISKLPGIKASIEPVEYDPEGMYWMKIDITIPPGMKISAGGSA [r15_441_TrROS] | 1.74 ± 0.12 kcal/mol | 1.16 ± 0.048 kcal/mol | 1.64 ± 0.21 kcal/mol
27 | SAGGSAPPDTPLATIEFTLTPPDGSTTPTTITVPPSVVEEAAAAQKAAFEAAGWATTVTVATTTPLSAGGSA [r2_274_JUSTAS] | 0.246 ± 0.1 kcal/mol | 0.676 ± 0.015 kcal/mol | 0.526 ± 0.034 kcal/mol
28 | SAGGSAPPFYIAINPDKPKSIHIMPPGSPDMRDDDGSKVIPFRTEEEFLKLIQEIKKKGVDKIHIYSAGGSA [r15_1004_TrROS] | 0.744 ± 0.24 kcal/mol | -0.0618 ± 0.18 kcal/mol | 0.413 ± 0.24 kcal/mol
29 | SAGGSAPPIEIEIDKWERDPENGYVYATVKIKLPGKKIEIPIWMDDPPGQAENQVKMLAENIARQLSAGGSA [r15_979_TrROS] | 1.39 ± 0.11 kcal/mol | 0.807 ± 0.082 kcal/mol | 1.11 ± 0.13 kcal/mol
30 | SAGGSAPPKRRERIIQIPIKMKPGQTADEMVDNIADWIMDLLPPDMRIEIEVEYHPENGWIMVKIESAGGSA [r15_739_TrROS] | 2.09 ± 0.084 kcal/mol | 1.21 ± 0.089 kcal/mol | 1.63 ± 0.3 kcal/mol
31 | SAGGSAPPNLQIDIQINPGHGYIEVSVQIPGRHVKASAKLTEPGQLKMDIEFPGNGKEIDITIPISSAGGSA [r15_837_TrROS] | 2.61 ± 0.072 kcal/mol | 2.04 ± 0.14 kcal/mol | 2.37 ± 0.15 kcal/mol
32 | SAGGSAPPPGSTQVIVVEKRDAPPEEAAQEIADEIKEKYPNTSVEVQEEEVPPGEPVVRVTVYIPPSAGGSA [r15_916_JUSTAS] | 0.945 ± 0.15 kcal/mol | 0.845 ± 0.14 kcal/mol | 0.559 ± 0.48 kcal/mol
33 | SAGGSAPPPNTIPIRVKIEDKNGKWETITFPVKSGDDAKDFLNDNFPNVKVEYDPGAGWVTIEVPKSAGGSA [r15_313_TrROS] | 0.2 ± 0.094 kcal/mol | -0.868 ± 0.29 kcal/mol | -0.0942 ± 0.44 kcal/mol
34 | SAGGSAPRIRVHFWNPNTGQWHHIPVERLKKAIDKNPPGEELEFPIPGYPVKVQVEPDDGTIWIRMSAGGSA [r15_350_TrROS] | 1.17 ± 0.25 kcal/mol | 1.01 ± 0.061 kcal/mol | 1.19 ± 0.16 kcal/mol
35 | SAGGSAPRVVRVETVTLTPPADSTVTARLLRLETPEGPRYVLAVRDPSTPVVVARPVPEGATLLEESAGGSA [r15_75_TrMRF] | -0.124 ± 0.1 kcal/mol | -0.581 ± 0.23 kcal/mol | -0.237 ± 0.11 kcal/mol
36 | SAGGSAPVVEYEFVDPGNGRKVKIEVYPHPDGNYQMSIEVYDPGKPVEKIPFWMPPGEMPIEDLLKSAGGSA [r15_147_TrROS] | 0.565 ± 0.24 kcal/mol | 0.528 ± 0.059 kcal/mol | 0.565 ± 0.13 kcal/mol
